# The nanobody polyreactivity screen of Harvey et al. (2022)
# Test: yeast display, Sf9 membrane polyspecificity reagent, FACS + sequencing; frameworks hold sequencing errors
# Method in brief: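 Nanobodies from a synthetic yeast display library (Saccharomyces cerevisiae BJ5465), induced 36–48 hours with galactose, were stained 1 hour at 4 °C with 10% biotinylated, detergent-solubilized Sf9 membrane reagent, enriched on streptavidin microbeads, then FACS-sorted. Anti-HA (expression) and streptavidin (reagent binding) fluorescence set low and high (top ~1%) gates. Polyreactivity labels come from the gate of origin. Genes were colony-PCR amplified, MiSeq 2 × 250 sequenced and filtered by CDR length.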
row,Sequence,polyreactivity (PSR sort gate)
1,QVQLVESAGGLVQAGGSLRLSCAASGIIFPAYAMGWYRQAPGKERELVAGISGRGGSTYYADSVKGRFTISRDNAKNTVYLQMNSLKPEDTAVYYCAAYAGGPYKFDYWGQGTQVTVSS,high polyreactivity
2,QVQLVESAGGLVQAGGSLRLSCAASGITFTYYAMGWYRQAPGKERELVATISYGGGITYYADSVKGRFTISRDNAKNTVYLQMNSLKPEDTAVYYCNADGATVWSLEYWGQGTQVTVSS,low polyreactivity
3,QVQLVESAGGLVQAGGSLRLSCAASGLTFTTYAMGWYRQAPGKERELVAAISRRGSRTYYADSVKGRFTISRDNAKNTVYLQMNSLKPEDTAVYYCNALTGSFKTYSFDYWGQGTQVTVSS,high polyreactivity
4,QVQLVESAGGLVQAGGSLRLSCAASGNTFHSNALGWYRQAPGKERELVAAITPSDGDTYYADSVKGRFTISRDNAKNTVYLQMNSLKPEDTAVYYCAAEDDPGEYEYWGQGTQVTESS,low polyreactivity
5,QVQLVESAGGLVQAGGSLRLSCAASGRIFGINSLGWYRQAPGKERELDAAISSGGSTYYADSVKGRFTISRDNAKYTVYILMNSEKPVDSAVYYCASDYDSSVCHDRGFWRDYWGQGNQVTVSS,low polyreactivity
6,QVQLVESAGGLVQAGGSLRLSCAASGRIFGYNAMGWYRQAPGKERELVAVITYSGGSTYYADSVKGRFTISRDNAKNTVYLQMNSLKPEDTAVYYCAKATTWGYFRVWSTRYYYWGQGTQVTVSS,low polyreactivity
7,QVQLVESAGGLVQAGGSLRLSCAASGRIFPFYAMGWYRQAPGKERELVAAISWNGGSTFYADSVKGRFTISRDNAKNTVYLQMNSLKPEDTAVYYCNADCRPAYTYDYWGQGTQVTVSS,low polyreactivity
8,QVQLVESAGGLVQAGGSLRLSCAASGRIFQFYAMGWYRQAPGKERELVATITRGGSTYYADSVKGRFTISRDNAKNTVYLQMNSLKPEDTAVYYCAAGFAGKYYWGQGTQVTVSS,high polyreactivity
9,QVQLVESAGGLVQAGGSLRLSCAASGRIFSPYAMGWYRQAPGKERELVAAIDWDGGGTYYADSVKGRFTISRDNAKNTVYLQMNSLKPEDTAVYYCAAETDLANGTSPSDYWGQGTQVTVSS,low polyreactivity
10,QVQLVESAGGLVQAGGSLRLSCAASGRIYGQNAMGWYRQAPGKERELVAAITGSGGRTYYADSVKGRFTISRDNAKNTVYLQMNSLKPEESAVYYSAVRVTSYYRTMDYWGQGTQVTVSS,low polyreactivity
11,QVQLVESAGGLVQAGGSLRLSCAASGRTGVNAMGWYRQAPGKERGLVAAINTSVGRTYYADSVKGRFTISRDNAKNTVYLQMNSLKPEDTAVYYCNTDRLGAARYDYWGQGTQVTVSS,low polyreactivity
12,QVQLVESAGGLVQAGGSLRLSCAASGSIFGSNAMGWYRQAPGKERELVASITSSGGSTHYADSVKGRFTISRDNAKNTVYLQMNSLKPEDTAVSYCATRAYGYYRWLYDYWGQGTQVTGSS,low polyreactivity
13,QVQLVESAGGLVQAGGSLRLSCAASGSIINRYAMGWYRQAPGKERELVAAITQSGGRTYYADSVKGRFTISRDNAKNTVYLQMNRLKPDDTAGYYCNAFRWYLYDYWGQGTLVTVSS,high polyreactivity
14,QVQLVESAGGLVQAGGSLRLSCAASGSILVLNAMGWSRQAPGKERELVAAITSRGTRTYYADSVKGRFTISRDNAKNTVYLQLNSLNPEDTAVYYCAAKAGYRYGSLAYYKYDYWGQGTQVTLSS,high polyreactivity
15,QVQLVESAGGLVQAGGSLRLSCAASGSTFANYAMGWYRQAPGKERELVAGISWRGGRTYYADSVKGRFTISRDNAKNTVYLQMNSLKPEDTAVYYSAVVHQTFTGDYWGQGTQVTVSS,high polyreactivity
16,QVQLVESAGGLVQAGGSLRLSCAASGSTFFTYTMGWYRQAPGKERELVAAISSGGSTYYADSVKGRFTISRDNAKNTVYLQMNSLKPEDTAVYYLLRGQGTQVTVSS,low polyreactivity
17,QVQLVESAGGLVQAGGSLRLSCAASGSTFVTYAMGWYRQAPGKERELVAAISSTGTGRTYYADSVKGRFTISRDNAKNTVYLQMNSLKPEDTAVYSCAADATSPLTWFDYWGQGTQVTVSS,low polyreactivity
18,QVQLVESAGGLVQAGGSLRLSCAASGSTFWIYTMGWYRQAPGKERELVAAITWSGGRTYYADSVKGRFTISRDNAKNTVYLQMNSLKPEDTAVYYCNADVYSYRPSTIQRYVLFDYWGQGTQVTVSS,low polyreactivity
19,QVQLVESAGGLVQAGGSLRLSCAASGSTLRAYAMGWYRQAPGKERELVAAISGSGDSTYYADSVKGRFTISRDNAKNTVYLQMNSLKPEDTAVYYCNKGLFSTGNIPYYLIVYLEYNYWGQGTQVTVSS,low polyreactivity
20,QVQLVESAGGLVQAGGSLRLSCAASGYIFQYYAMGWYRQAPGKERELVAAITSGGSTYYADSVKGRFTISRDNAKNTVYLQMNSLKPEDTAVYYCAAHLLHYRGDYWGQGTQVTVSS,high polyreactivity
21,QVQLVESAGGLVQAGGSLRLSCAASGYIFSYNAMGGYRQAPGKERELVAAITASGGGTYYADSVKGRFTISRDNAKNTVYLHMNSLKQEDTAVYYCAADLSWSRVVFGDYDYWGQGTQVTVSS,low polyreactivity

row,Sequence,polyreactivity (PSR sort gate)
1,QVQLVESAGGLVQAGGSLRLSCAASGYTLYLNAMGWYRQAPGKERELVARISGGGSTNYADSVKGRFTISRDNAKNTVYLQMNSLKPEDTAVYYCAASIFAYGYRSFQLDYWGQGTQVTVSS,low polyreactivity
2,QVQLVESAGGLVQAGGSLRLSCAAYGRIFAYNAMGWYRQSPGKERELVAAITWSGDSTYYADSVKGRFTISRDNAKNTVYLQMNSLKPEDTAVYYCATDPLFITSTRWKYDYWGQGTQVTVSS,low polyreactivity
3,QVQLVESAGGLVQAGGSLRLSCADSGSTFSPYAMGWYIDAPGKERELVAAIRSGRTSYADSVKGRFTISRDNAKNTVYLQMNSLKPEDTAVYYCAKASRVGYYWGQGTQVTESS,high polyreactivity
4,QVQLVESAGGLVQAGGSLRLSCASSGSTLPYNAMGWYRQAPGKESELVAAISKSGGRTYYADSVKGRFTISRDNAKNSVYLQMNSLKPEDTAVYYCNAGPYLGGGGSSRYLWGQGTQVTVSS,high polyreactivity
5,QVQLVESAGGLVQAGGSLRLSCDASGRIIRGNAMGWYRQAPGKEREMVAAINRSGGSTYYADSVKGRFTISRDNAKNTVYLQMKSLKQEDTAVYYCIAYPASRKTGWSSGYYYWGQGTQVTVSS,high polyreactivity
6,QVQLVESAGGLVQAGGSLRLSCDASGSIFRYYDMGWYRQAPGKERELVAAITYYGGGTYYADSVKGRFTISRDNAKNTVYLQMNSLKAEDTAVYYCAVRRVGSIYMDRYRYVVADYVYWGQGTQVTVSS,low polyreactivity
7,QVQLVESAGGLVQAGGSLRLSCDASGSTIDEYDMGWYRQAPGKERELVAAISDRGSRTRYADSVKGRFTISRDNAKNTVYLQLNSLKPEDTAVDYCNADIYVNYWDFDYWGQGTQVTVSS,high polyreactivity
8,QVQLVESAGGLVQAGGSLRLSSAASGYNFCSYAMGWYRQAPGKEREFVATISASGGRTYYADSVKGRFTISRDNAKNTVYLQMNSMKPEDTAVYYCNADPGNHAYWYYVEFYYYTYDYWGQGTQVTVSS,low polyreactivity
9,QVQLVESAGGLVQAGGSLRLTCAASGRTFTFNTMGWYRQAPGKERELVAAIDGDGTTNYADSVKGRFTISRDNAKNTVYLQMNSLKPEDTAVYYCAADFLYSFWYEPTFDYWGQGTQVTVSS,low polyreactivity
10,QVQLVESAGGLVQAGGSLRVSCAASGSTFSRYTMGWYRQAPGKERELVAAIRWSSGRTYYADSVKGRFTISRDNAKNTVYLQMNSLKPEDTAVYYCAALFPRGQADYAYWGQGTPVTVSS,high polyreactivity
11,QVQLVESAGGLVQAGGSLSLSCAASGRTFGQYPMGWYRKAPGKERELVAAITRSAGSTYYADSVKGRFTISRDNAKNNVYLQMNSLKPEDTAVSYCAKRFYWSVDGYRTAKYYYWGQGTQVTVSS,high polyreactivity
12,QVQLVESAGGLVQAGGSLSLSCAASGYTYWYAMGWYRQAPGKERELVAAIDSGVTRTYYADSVKGRFTISRDNAKNTVYLQMNSLKPEDTAVYYCAAGLSTDYGYWGQGTQVTVSS,low polyreactivity
13,QVQLVESAGGLVQAGVILRLSCPASGSTIEYYAMGWYRQAPGKERELVATISIDGRTNYADSVKGRFTISRDNAKNTVYLQMNSLNPEDTAVYYCAARPYWRHRYDYCGQGTQVTVSS,low polyreactivity
14,QVQLVESAGGLVQEGGSLRLICAASARTIVIYSMGWYRQAPGKEREFVAAISRSGGSTYYADSVKGRFTISRDNQKNTVYLQMNSLQPVDTAVYYCNTRTPYWFKSDYWGQGTQVTVSS,low polyreactivity
15,QVQLVESAGGLVQEGGSLRLICAASGSIFGGYAMGWYRQAPGKERELVAAISWSSSTTYYADSVKGRFTISRDHAMNTVYLQLNSLKPEDTAVYDCATGIYPQTSDYDYWGQGTQVTVSS,low polyreactivity
16,QVQLVESAGGLVQEGGSLRLSCAASGRIFGPYALGWYRQAPGKERELVAAISFSGSGTYYAASVKGRFTISRDNANNTVYLQIYSLKPEDNAVYYCAADGVYIDSNNRNTSDYWGQGTQVTVSS,low polyreactivity
17,QVQLVESAVGLVQAGGSLPLSCDASSSTIYPYAMGWYRQAPGKERELVAAISSGGSTSYADSVKGRFTISRDNAKNTVYLQMNSLKPEDTAVYYCNADPLQCKLWTYFFGFPGYYWGQGTQVTVSS,low polyreactivity
18,QVQLVESCGGKVQAGGSLRLSCAASGRIFWYYAMVWYRQAPGKERELVAAIDRTRVRTSYADSVKGRFTISRDNAKNTVYLQMNSLKPEDTAVYYCAADLVYGHYVTYWNSYVYWGQGTEVTVSS,low polyreactivity
19,QVQLVESCGGLVQAGCSLRLSCAASGSIFDGNAMGWYRQAPGKERDLVAVISSRGTRTYYADSVKGRFTISRDNAKITVYLQMNSLKPEDTAVYYFNTRTSDLNGSGDYWGQGTQVTVSS,high polyreactivity
20,QVQLVESCGGLVQAGGRLRLICAASGRTFTYNAMGWYIQAPGQERELVAAINFSGVSTYYADSVKGRFTISRDNAKYTVYLQMNSLKPEDTAVYSCNTVGYHYESDYWGQGTQVTVSS,high polyreactivity
